Assay results reported in patent US20230192896A1 (published 2023).
Residue numbers refer to the chain shown, from its start. Each block holds one binder with its values, some of them ahead of it.

Biological target: free FIXa (activated Factor IX) (UniProt P00740 47-191; P00740 227-461)
Assay: BLI

B5: BIIB-9-888 (antibody, V domains shown)
VH: QVQLVQSGAEVKKPGASVKVSCKASGYTFTSYYMHWVRQAPGQGLEWMGIINPSGGSTSYAQKFQGRVTMTRDTSTSTVYMELSSLRSEDTAVYYCARGPTDSSGYLDMDVWGKGTTVTVSS
VL: EIVMTQSPATLSVSPGERATLSCRASQSVSSNLAWYQQKPGQAPRLLIYGASTRATGIPARFSGSGSGTEFTLTISSLQPEDFAVYYCQQAFNWPPTFGGGTKVEIK
Kd: 65.6 nM

B6: BIIB-9-445 (antibody, V domains shown)
VH: QVQLVQSGAEVKKPGASVKVSCKASGYTFTSYYIHWVRQAPGQGLEWMGIINPSGGSTSYAQKFQGRVTMTRDTSTSTVYMELSSLRSEDTAVYYCARDVGQDYWFDLWGRGTLVTVSS
VL: B5 VL with G50S, P80S, A91Y, F92D, W94F, P96F
Kd: 20.2 nM

B7: BIIB-9-592 (antibody, V domains shown)
VH: QLQLQESGPGLVKPSETLSLTCTVSGGSISSNSYYWGWIRQPPGKGLEWIGSIYYSGSTYYNPSLKSRVTISVDTSKNQFSLKLSSVTAADTAVYYCARDSNYDSSGYALYYYGMDVWGQGTTVTVSS
VL: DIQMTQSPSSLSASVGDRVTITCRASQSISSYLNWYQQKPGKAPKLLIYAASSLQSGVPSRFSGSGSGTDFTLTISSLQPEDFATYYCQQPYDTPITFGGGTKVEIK
Kd: 21.7 nM

B11: BIIB-9-461 (antibody, V domains shown)
VH: B5 VH
VL: B5 VL with N32S, P80S, A91H, F92H, N93H
Kd: 43.1 nM

B12: BIIB-9-1278 (antibody, V domains shown)
VH: QVQLVQSGAEVKKPGASVKVSCKASGYTFTSYYMVWVRQAPGQGLEWMGIINPSGGSTSYAQKFQGRVTMTRDTSTSTVYMELSSLRSEDTAVYYCARGPGELGYYLAFDIWGQGTMVTVSS
VL: B5 VL with P80S, A91H, F92A, W94F
Kd: 66.2 nM

B13: BIIB-9-611 (antibody, V domains shown)
VH: QVQLVQSGAEVKKPGASVKVSCKASGYTFTSYYMHWVRQAPGQGLEWMGIINPSGGSTSYAQKFQGRVTMTRDTSTSTVYMELSSLRSEDTAVYYCAREVISRVSYFDLWGRGTLVTVSS
VL: B5 VL with P80S, A91D, F92N, N93I, W94H, P96Y
Kd: 18.6 nM

B16: BIIB-9-883 (antibody, V domains shown)
VH: B6 VH with I34M, V100G, G101R, Q102L, D103S, W105T, F106W, L108R, R111Q
VL: DIQMTQSPSSLSASVGDRVTITCQASQDITNYLNWYQQKPGKAPKLLIYDASNLETGVPSRFSGSGSGTDFTFTISSLQPEDIATYYCQQADHFPFTFGGGTKVEIK
Kd: 17.5 nM

B18: BIIB-9-440 (antibody, V domains shown)
VH: QLQLQESGPGLVKPSETLSLTCTVSGGSISSSDYYWGWIRQPPGKGLEWIGSIYYSGSTYYNPSLKSRVTISVDTSKNQFSLKLSSVTAADTAVYYCARSPRHKVRGPNWFDPWGQGTLVTVSS
VL: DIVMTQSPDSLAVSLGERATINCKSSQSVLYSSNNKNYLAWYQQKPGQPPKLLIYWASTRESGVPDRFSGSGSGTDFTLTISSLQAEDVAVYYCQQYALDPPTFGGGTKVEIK
Kd: 39.9 nM

B19: BIIB-9-1281 (antibody, V domains shown)
VH: QVQLQQWGAGLLKPSETLSLTCAVYGGSFSGYYWSWIRQPPGKGLEWIGEIDHSGSTNYNPSLKSRVTISVDTSKNQFSLKLSSVTAADTAVYYCARTTRSKYYGMDVWGQGTMVTVSS
VL: DIQMTQSPSTLSASVGDRVTITCRASQSISSWLAWYQQKPGKAPKLLIYKASSLESGVPSRFSGSGSGTDFTLTISSLQPEDFATYYCQQAISLPITFGGGTKVEIK
Kd: 16.8 nM

B23: BIIB-9-1279 (antibody, V domains shown)
VH: B5 VH
VL: B19 VL with T10S, L11V, S28G, K50A, E55Q, I92S, L94F, I96P
Kd: 40.9 nM

B25: BIIB-9-479 (antibody, V domains shown)
VH: QVQLQESGPGLVKPSETLSLTCTVSGGSISSYYWSWIRQPPGKGLEWIGSIYYSGSTNYNPSLKSRVTISVDTSKNQFSLKLSSVTAADTAVYYCAREHYGDYPLFDIWGQGTMVTVSS
VL: B19 VL with D70E, E81D, A91Y, I92R, S93I, P95S, I96P
Kd: 58.3 nM

Further binders by falling Kd, results first:

Kd: 16.7 nM
B17: BIIB-9-621 (antibody, V domains shown)
VH: QLQLQESGPGLVKPSETLSLTCTVSGGSISSSSYYWGWIRQPPGKGLEWIGSIYYSGSTYYNPSLKSRVTISVDTSKNQFSLKLSSVTAADTAVYYCARDGSISGSRFDYWGQGTLVTVSS
VL: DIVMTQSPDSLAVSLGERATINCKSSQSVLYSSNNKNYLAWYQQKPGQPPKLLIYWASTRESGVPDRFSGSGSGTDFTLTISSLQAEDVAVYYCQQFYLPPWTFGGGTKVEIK

Kd: 15.6 nM
B1: BIIB-9-439 (antibody, V domains shown)
VH: QVQLVQSGAEVKKPGASVKVSCKASGYTFTSYYMHWVRQAPGQGLEWMGIINPSGGSTTYAQKFQGRVTMTRDTSTSTVYMELSSLRSEDTAVYYCAREATESYYYMDVWGKGTTVTVSS
VL: B5 VL with V13L, N32Y, G50D, A51S, T53N, E70D, Q79E, A91R, F92D, P96F

Kd: 15.6 nM
B3: BIIB-9-1267 (antibody, V domains shown)
VH: B1 VH with T59S, E99D, A100H, T101G, E102W, S103A, Y104I, Y106G, K112Q
VL: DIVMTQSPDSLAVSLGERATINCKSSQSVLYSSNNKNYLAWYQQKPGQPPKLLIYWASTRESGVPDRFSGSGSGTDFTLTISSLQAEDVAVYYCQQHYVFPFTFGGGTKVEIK

Kd: 14.9 nM
B14: BIIB-9-1264 (antibody, V domains shown)
VH: B13 VH with E99D, V100G, I101D, R103S, S105Y, Y106A, L109Y, R112Q
VL: B16 VL with A91V, H93D, F94Y

Kd: 12.9 nM
B20: BIIB-9-581 (antibody, V domains shown)
VH: QVQLVQSGAEVKKPGASVKVSCKASGYTFTSYYMHWVRQAPGQGLEWMGIINPSGGSTSYAQKFQGRVTMTRDTSTSTVYMELSSLRSEDTAVYYCARDPLYYREGYVFDYWGQGTLVTVSS
VL: B19 VL with T10S, W32Y, A34N, K50A, E55Q, A91S, I92D, S93L, L94F, I96F

Kd: 11.8 nM
B4: BIIB-9-587 (antibody, V domains shown)
VH: B1 VH with T59S, E99G, A100P, T101P, E102G, S103Y, Y104E
VL: B19 VL with T10S, L11V, S28G, K50A, E55Q, I92D, L94F, I96F

Kd: 8.63 nM
B21: BIIB-9-605 (antibody, V domains shown)
VH: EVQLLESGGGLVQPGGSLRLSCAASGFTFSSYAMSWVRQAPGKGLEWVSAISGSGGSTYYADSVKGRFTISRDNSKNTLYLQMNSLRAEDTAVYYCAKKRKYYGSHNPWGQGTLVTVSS
VL: B19 VL with T10S, L11V, S28G, K50A, E55Q, I92D, S93V, L94F, I96F

Kd: 8.58 nM
B9: BIIB-9-573 (antibody, V domains shown)
VH: QLQLQESGPGLVKPSETLSLTCTVSGGSISSSSYYWGWIRQPPGKGLEWIGSIYYSGSTYYNPSLKSRVTISVDTSKNQFSLKLSSVTAADTAVYYCARESKTKGYLDLWGRGTLVTVSS
VL: EIVLTQSPGTLSLSPGERATLSCRASQSVSSSFLAWYQQKPGQAPRLLIYGASSRATGIPDRFSGSGSGTDFTLTISRLEPEDFAVYYCQQSHSPPYTFGGGTKVEIK

Kd: 7.51 nM
B8: BIIB-9-480 (antibody, V domains shown)
VH: QVQLQESGPGLVKPSETLSLTCAVSGYSISSGYYWGWIRQPPGKGLEWIGSSYHSGSTYYNPSLKSRVTISVDTSKNQFSLKLSSVTAADTAVYYCARDQQDYGAFDIWGQGTMVTVSS
VL: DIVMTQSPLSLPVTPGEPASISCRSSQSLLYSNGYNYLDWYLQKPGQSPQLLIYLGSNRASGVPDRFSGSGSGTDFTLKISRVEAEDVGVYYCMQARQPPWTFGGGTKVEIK

Kd: 7.05 nM
B15: BIIB-9-569 (antibody, V domains shown)
VH: QVQLVQSGAEVKKPGASVKVSCKASGYTFTSYYMHWVRQAPGQGLEWMGIINPSGGSTSYAQKFQGRVTMTRDTSTSTVYMELSSLRSEDTAVYYCARDGSGYSPYSFDPWGQGTLVTVSS
VL: B16 VL with T30S, E55A, H93D

Kd: 6.57 nM
B22: BIIB-9-607 (antibody, V domains shown)
VH: QLQLQESGPGLVKPSETLSLTCTVSGGSISSSSYYWGWIRQPPGKGLEWIGSISYSGSTYYNPSLKSRVTISVDTSKNQFSLKLSSVTAADTAVYYCARDRGYSYEDFDLWGRGTLVTVS
VL: B19 VL with D70E, E81D, I92G, S93R, L94Y, I96L

Kd: 6.1 nM
B24: BIIB-9-887 (antibody, V domains shown)
VH: QVQLVQSGAEVKKPGASVKVSCKASGYTFTSYYMVWVRQAPGQGLEWMGIINPSGGSTSYAQKFQGRVTMTRDTSTSTVYMELSSLRSEDTAVYYCARDAEAHWIPGMDVWGQGTTVTVSS
VL: B19 VL with T10S, L11V, S28G, K50A, E55Q, I92S, L94F, I96F

Kd: 5.46 nM
B10: BIIB-9-425 (antibody, V domains shown)
VH: QVQLVQSGAEVKKPGASVKVSCKASGYTFTSYYMHWVRQAPGQGLEWMGIINPSGGSTSYAQKFQGRVTMTRDTSTSTVYMELSSLRSEDTAVYYCAREPTWDVAYDYWGQGTLVTVS
VL: B9 VL with S32D, F33Y, S92Y, H93D, P95H

Kd: 0.804 nM
B2: BIIB-9-885 (antibody, V domains shown)
VH: QVQLVQSGAEVKKPGASVKVSCKASGYTFTSYYMHWVRQAPGQGLEWMGIINPSGGSTSYAQKFQGRVTMTRDTSTSTVYMELSSLRSEDTAVYYCAREGPMLDYPTYSNWFDPWGQGTLVTVSS
VL: B5 VL with M4L, V13L, N32Y, G50D, T53K, E70D, Q79E, A91R, F92V, N93I
